According to patent US20190300590A1 (PROTAGONIST THERAPEUTICS, published 2019):
Bridges are numbered along the chain shown (N, C = ends). [ ]: non-standard residue; d: D form. 2Nal = N[C@@H](Cc1ccc2ccccc2c1)C(=O)O; AEF = NCCOc1ccc(C[C@H](N)C(=O)O)cc1; hArg = N=C(N)NCCCC[C@H](N)C(=O)O; αMeL = CC(C)C[C@](C)(N)C(=O)O; Pen = CC(C)(S)[C@H](N)C(=O)O; αMeK = C[C@](N)(CCCCN)C(=O)O; αMeS = C[C@](N)(CO)C(=O)O; Iva = CC[C@](C)(N)C(=O)O; Abu = CC[C@H](N)C(=O)O; Aib = CC(C)(N)C(=O)O; AEA = NCCOCC(=O)O

Legend:
IL-23R on DB cells = target: T1, IL-23R on DB cells (human, UniProt Q5VWK5 24-629); assay: cell-based or functional assay
T1 sequence (looked up): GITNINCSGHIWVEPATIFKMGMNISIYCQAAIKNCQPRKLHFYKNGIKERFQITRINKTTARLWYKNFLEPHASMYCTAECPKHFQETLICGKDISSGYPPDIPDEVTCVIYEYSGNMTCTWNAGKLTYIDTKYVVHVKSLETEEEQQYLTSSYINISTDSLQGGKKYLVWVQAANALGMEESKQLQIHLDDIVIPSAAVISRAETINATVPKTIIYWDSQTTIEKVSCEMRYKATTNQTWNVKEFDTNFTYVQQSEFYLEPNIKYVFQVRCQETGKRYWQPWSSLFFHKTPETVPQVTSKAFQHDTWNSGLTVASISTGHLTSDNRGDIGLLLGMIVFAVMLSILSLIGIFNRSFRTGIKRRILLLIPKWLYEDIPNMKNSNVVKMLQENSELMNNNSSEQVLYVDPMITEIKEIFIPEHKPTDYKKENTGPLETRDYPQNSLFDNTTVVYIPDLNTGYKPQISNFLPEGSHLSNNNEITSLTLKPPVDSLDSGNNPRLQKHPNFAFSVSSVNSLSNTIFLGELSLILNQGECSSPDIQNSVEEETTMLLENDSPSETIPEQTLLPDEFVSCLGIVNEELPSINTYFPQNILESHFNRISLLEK

IL23R_huFC = target: T2, IL23R_huFC (human, UniProt Q5VWK5 24-353); assay: human ELISA vs IL-23
T2 sequence (looked up): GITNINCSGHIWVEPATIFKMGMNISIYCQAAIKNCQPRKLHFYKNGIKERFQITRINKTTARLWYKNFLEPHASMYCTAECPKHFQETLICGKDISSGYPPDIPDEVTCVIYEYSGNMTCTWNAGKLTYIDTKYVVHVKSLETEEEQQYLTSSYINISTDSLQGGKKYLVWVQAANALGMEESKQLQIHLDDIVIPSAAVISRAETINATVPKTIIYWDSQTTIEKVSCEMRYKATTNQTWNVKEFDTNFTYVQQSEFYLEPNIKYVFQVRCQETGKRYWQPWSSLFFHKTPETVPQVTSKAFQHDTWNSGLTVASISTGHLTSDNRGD

[1] = target: T3, IL-23R on human cells (IL-23R-expressing DB cells; human NK cells) (human, UniProt Q5VWK5 24-629); assay: cell-based or functional assay
T3 sequence (looked up): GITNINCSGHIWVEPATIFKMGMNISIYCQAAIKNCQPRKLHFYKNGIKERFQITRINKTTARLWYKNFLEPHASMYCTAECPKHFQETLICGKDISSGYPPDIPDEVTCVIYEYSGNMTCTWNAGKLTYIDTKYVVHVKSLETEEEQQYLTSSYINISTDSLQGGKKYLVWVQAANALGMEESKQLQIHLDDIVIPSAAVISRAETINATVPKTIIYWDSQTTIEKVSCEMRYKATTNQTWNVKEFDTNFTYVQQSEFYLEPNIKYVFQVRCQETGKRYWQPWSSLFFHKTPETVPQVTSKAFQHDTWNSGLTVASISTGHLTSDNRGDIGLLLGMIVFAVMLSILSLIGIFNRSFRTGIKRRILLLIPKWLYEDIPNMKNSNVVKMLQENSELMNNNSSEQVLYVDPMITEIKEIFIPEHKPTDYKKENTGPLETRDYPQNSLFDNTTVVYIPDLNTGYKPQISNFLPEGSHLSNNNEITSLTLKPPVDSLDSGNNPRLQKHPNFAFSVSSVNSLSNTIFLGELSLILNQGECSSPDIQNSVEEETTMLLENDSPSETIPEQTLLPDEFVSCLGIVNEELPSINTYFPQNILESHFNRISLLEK

Row | Binder | pStat3 HTRF IC50 (IL-23R on DB cells) | IC50 (IL23R_huFC) | pStat3 HTRF IC50 [1]
1 | XNTWQXFXXKNN (Ac; Pen-Pen disulfide; Phe(4-OMe); 2-Nal; Aib; Lys(Ac); NH2) [Ac-[Pen]-NTWQ-[Pen]-[Phe(4-OMe)]-[2-Nal]-[Aib]-[Lys(Ac)]-NN-NH2] | < 10 nM |  | 
2 | XNTWQXFXXKNQ (Ac; Pen-Pen disulfide; Phe(4-OMe); 2-Nal; Aib; Lys(Ac); NH2) [Ac-[Pen]-NTWQ-[Pen]-[Phe(4-OMe)]-[2-Nal]-[Aib]-[Lys(Ac)]-NQ-NH2] | < 10 nM |  | 
3 | XNTWQXFXXKNA (Ac; Pen-Pen disulfide; Phe[4-(2-aminoethoxy)]; 2-Nal; Aib; Lys(Ac); βAla; NH2) [Ac-[Pen]-NTWQ-[Pen]-[Phe[4-(2-aminoethoxy)]-[2-Nal]-[Aib]-[Lys(Ac)]-N-[βAla]-NH2] | < 10 nM |  | 
4 | XNTWQXFXLKNA (Ac; Pen-Pen disulfide; Phe(4-OMe); 2-Nal; hLeu; Lys(Ac); βAla; NH2) [Ac-[Pen]-NTWQ-[Pen]-[Phe(4-OMe)]-[2-Nal]-[hLeu]-[Lys(Ac)]-N-[βAla]-NH2] | < 10 nM |  | 
5 | XNTWQXFXLKNA (Ac; Pen-Pen disulfide; Phe[4-(2-aminoethoxy)]; 2-Nal; hLeu; Lys(Ac); βAla; NH2) [Ac-[Pen]-NTWQ-[Pen]-[Phe[4-(2-aminoethoxy)]-[2-Nal]-[hLeu]-[Lys(Ac)]-N-[βAla]-NH2] | < 10 nM |  | 
6 | Ac-E[Pen]QTWQ[Pen][AEF][2Nal][Aib]K(Ac)NN-NH2 (disulfide 2-7; SMILES CC(=O)NCCCC[C@H](NC(=O)C(C)(C)NC(=O)[C@H](Cc1ccc2ccccc2c1)NC(=O)[C@H](Cc1ccc(OCCN)cc1)NC(=O)[C@H]1NC(=O)[C@H](CCC(N)=O)NC(=O)[C@H](Cc2c[nH]c3ccccc23)NC(=O)[C@H]([C@@H](C)O)NC(=O)[C@H](CCC(N)=O)NC(=O)[C@@H](NC(=O)[C@H](CCC(=O)O)NC(C)=O)C(C)(C)SSC1(C)C)C(=O)N[C@@H](CC(N)=O)C(=O)N[C@@H](CC(N)=O)C(N)=O) [Ac-E-[Pen]-QTWQ-[Pen]-[Phe[4-(2-aminoethoxy)]-[2-Nal]-[Aib]-[Lys(Ac)]-NN-NH2] | < 10 nM |  | 
7 | Ac-[Abu]QTWQC[AEF][2Nal][αMeK][hArg]NG-NH2 (thioether 1-6) [Ac-Cyclo-[[Abu]-QTWQC]-[Phe[4-(2-aminoethoxy)]]-2-Nal]-[α-MeLys]-hRNG-NH2] |  | < 10 nM | < 10 nM
8 | Ac-[Abu]QTWQC[AEF][2Nal][Iva]K(Ac)NG-NH2 (thioether 1-6) [Ac-Cyclo-[[Abu]-QTWQC]-[Phe[4-(2-aminoethoxy)]]-[2-Nal]-[α-Me-Gly(Ethyl)]Lys(Ac)]-NG-NH2] |  | < 10 nM | < 10 nM
9 | Ac-[Abu]QTWQC[AEF][2Nal][αMeK]NNG-NH2 (thioether 1-6) [Ac-Cyclo-[[Abu]-QTWQC]-[Phe[4-(2-aminoethoxy)]]-[2-Nal]-[α-MeLys]-NNG-NH2] |  | < 10 nM | < 10 nM
10 | Ac-[Abu]QTWQC[AEF][2Nal][αMeK]QNG-NH2 (thioether 1-6) [Ac-Cyclo-[[Abu]-QTWQC]-[Phe[4-(2-aminoethoxy)]]-[2-Nal]-[α-MeLys]-QNG-NH2] |  | < 10 nM | < 10 nM
11 | Ac-[Abu]QTWQC[AEF][2Nal][αMeS]K(Ac)NG-NH2 (thioether 1-6) [Ac-Cyclo-[[Abu]-QTWQC]-[Phe[4-(2-aminoethoxy)]]-[2-Nal]-[α-MeSer]-[Lys(Ac)]-NG-NH2] |  | < 10 nM | < 10 nM
12 | Ac-[Abu]TTWQC[AEF][2Nal][αMeK]ENG-NH2 (thioether 1-6) [Ac-Cyclo-[[Abu]-TTWQC]-[Phe[4-(2-aminoethoxy)]]-[2-Nal]-[α-MeLys]-ENG-NH2] |  | < 10 nM | < 10 nM
13 | Ac-[Abu]QTWQC[AEF]W[αMeL]ENG-NH2 (thioether 1-6) [Ac-Cyclo-[[Abu]-QTWQC]-[Phe[4-(2-aminoethoxy)]]-W-[α-Me-Leu]-ENG-NH2] |  | < 10 nM | < 10 nM
14 | Ac-[Abu]QTWQC[AEF][2Nal][Aib]KNG-NH2 (thioether 1-6) [Ac-Cyclo-[[Abu]-QTWQC]-[Phe[4-(2-aminoethoxy)]]-[2-Nal]-[Aib]-KNG-NH2] |  | < 10 nM | < 10 nM
15 | Ac-[Abu]QTWQC[AEF][2Nal][Aib]K(Ac)NG-NH2 (thioether 1-6) [Ac-Cyclo-[[Abu]-QTWQC]-[Phe[4-(2-aminoethoxy)]]-[2-Nal]-[Aib]-[Lys(Ac)]-NG-NH2] |  | < 10 nM | < 10 nM
16 | XQTWQCFXXKNG (as bracketed in name; thioether cyclo) [Ac-Cyclo-[[Abu]-QTWQC]-[Phe[4-(2-aminoethoxy)]]-[2-Nal]-[α-Me-Orn]-[Lys(Ac)]-NG-NH2] |  | < 10 nM | < 10 nM
17 | Ac-[Abu]QTWQC[AEF][2Nal][αMeK]K(Ac)NG[AEA][dK]-NH2 (thioether 1-6) [Ac-Cyclo-[[Abu]-QTWQC]-[Phe[4-(2-aminoethoxy)]]-[2-Nal][α-MeLys]-[Lys(Ac)]--NG-[AEA]-[(D)Lys]-NH2] |  | < 10 nM | < 10 nM
18 | XQTWQCFXKXNG (as bracketed in name; thioether cyclo) [Ac-Cyclo-[[Abu]-QTWQC]-[Phe[4-(2-aminoethoxy)]]-[2-Nal]-[α-MeLys]-[Orn]-NG-NH2] |  | < 10 nM | < 10 nM
19 | Ac-[Abu]TWQC[AEF][2Nal][αMeK]ENG-NH2 (thioether 1-5) [Ac-Cyclo-[[Abu]-TWQC]-[Phe[4-(2-aminoethoxy)]]-[2-Nal]-[α-MeLys]-ENG-NH2] |  | < 10 nM | < 10 nM
20 | Ac-R[Abu]QTWQC[AEF][2Nal][αMeK]ENN-NH2 (thioether 2-7) [Ac-Arg-Cyclo-[[Abu]-QTWQC]-[Phe[4-(2-aminoethoxy)]]-[2-Nal]-[α-MeLys]-ENN-NH2] |  | < 10 nM | < 10 nM
